Test results as given in patent publication US20260274980A1 (BIOARCTIC, published 2026).

B1: 2A-3 #4 (bispecific antibody, human IgG1, kappa)
heavy: not shown
chain: DIVMTQAPLSLPVSLGDQASISCRSSQSIVHSNGNTYLEWYLQKPGQSPKLLIYKVSNRFSGVPDRFSGSGSGTDFTLKISRVEAEDLGIYYCFQGSHVPPTFGGGTKLEIKRTVAAPSVFIFPPSDEQLKSGTASVVCLLNNFYPREAKVQWKVDNALQSGNSQESVTEQDSKDSTYSLSSTLTLSKADYEKHKVYACEVTHQGLSSPVTKSFNRGECGGGGSEVQLVQSGAEVKKPGSSVKVSCKASGYIFTDYNMDWVRQAPGQGLEWIGDINPDADTTSYNEKFKGRATLTVDKSTSTAYMELSSLRSEDTAVYYCARGGYSGSSYYHPMDYWGQGTLVTVSSGGGGSGGGGSGGGGSDIQMTQSPSSVSASVGDRVTITCKSSQSLLYSTNQKNYLAWYQQKPGKAPKLLIYWASTRESGVPSRFSGSGSGTDFTLTISSLQPEDFATYYCQQYFIYPRTFGQGTKVEIKGGGGSGGGGSGGGGSGGGGSGGGGSDIVMTQAPLSLPVSLGDQASISCRSSQSIVHSNGNTYLEWYLQKPGQSPKLLIYKVSNRFSGVPDRFSGSGSGTDFTLKISRVEAEDLGIYYCFQGSHVPPTFGGGTKLEIKRTVAAPSVFIFPPSDEQLKSGTASVVCLLNNFYPREAKVQWKVDNALQSGNSQESVTEQDSKDSTYSLSSTLTLSKADYEKHKVYACEVTHQGLSSPVTKSFNRGEC
notes: also called Gen 2A construct #4; VH first
B2: 2A-3 #1 (bispecific antibody, human IgG1, kappa)
heavy: not shown
chain: DIVMTQAPLSLPVSLGDQASISCRSSQSIVHSNGNTYLEWYLQKPGQSPKLLIYKVSNRFSGVPDRFSGSGSGTDFTLKISRVEAEDLGIYYCFQGSHVPPTFGGGTKLEIKRTVAAPSVFIFPPSDEQLKSGTASVVCLLNNFYPREAKVQWKVDNALQSGNSQESVTEQDSKDSTYSLSSTLTLSKADYEKHKVYACEVTHQGLSSPVTKSFNRGECGGGGSEVQLVQSGAEVKKPGSSVKVSCKASGYIFTDYNMDWVRQAPGQGLEWIGDINPDADTTSYNEKFKGRATLTVDKSTSTAYMELSSLRSEDTAVYYCARGGYSGSSYYHPMDYWGQGTLVTVSSGGGGSGGGGSGGGGSDIQMTQSPSSVSASVGDRVTITCKSSQSLLYSTNQKNYLAWYQQKPGKAPKLLIYWASTRESGVPSRFSGSGSGTDFTLTISSLQPEDFATYYCQQYFIYPRTFGQGTKVEIKGGGGSGGGGSGGGGSGGGGSDIVMTQAPLSLPVSLGDQASISCRSSQSIVHSNGNTYLEWYLQKPGQSPKLLIYKVSNRFSGVPDRFSGSGSGTDFTLKISRVEAEDLGIYYCFQGSHVPPTFGGGTKLEIKRTVAAPSVFIFPPSDEQLKSGTASVVCLLNNFYPREAKVQWKVDNALQSGNSQESVTEQDSKDSTYSLSSTLTLSKADYEKHKVYACEVTHQGLSSPVTKSFNRGEC
notes: also called Gen 2A construct #1; VH first
B3: 2A-3 #2 (bispecific antibody, human IgG1, kappa)
heavy: not shown
chain: DIVMTQAPLSLPVSLGDQASISCRSSQSIVHSNGNTYLEWYLQKPGQSPKLLIYKVSNRFSGVPDRFSGSGSGTDFTLKISRVEAEDLGIYYCFQGSHVPPTFGGGTKLEIKRTVAAPSVFIFPPSDEQLKSGTASVVCLLNNFYPREAKVQWKVDNALQSGNSQESVTEQDSKDSTYSLSSTLTLSKADYEKHKVYACEVTHQGLSSPVTKSFNRGECGGGGSGGGGSEVQLVQSGAEVKKPGSSVKVSCKASGYIFTDYNMDWVRQAPGQGLEWIGDINPDADTTSYNEKFKGRATLTVDKSTSTAYMELSSLRSEDTAVYYCARGGYSGSSYYHPMDYWGQGTLVTVSSGGGGSGGGGSGGGGSDIQMTQSPSSVSASVGDRVTITCKSSQSLLYSTNQKNYLAWYQQKPGKAPKLLIYWASTRESGVPSRFSGSGSGTDFTLTISSLQPEDFATYYCQQYFIYPRTFGQGTKVEIKGGGGSGGGGSGGGGSGGGGSDIVMTQAPLSLPVSLGDQASISCRSSQSIVHSNGNTYLEWYLQKPGQSPKLLIYKVSNRFSGVPDRFSGSGSGTDFTLKISRVEAEDLGIYYCFQGSHVPPTFGGGTKLEIKRTVAAPSVFIFPPSDEQLKSGTASVVCLLNNFYPREAKVQWKVDNALQSGNSQESVTEQDSKDSTYSLSSTLTLSKADYEKHKVYACEVTHQGLSSPVTKSFNRGEC
notes: also called Gen 2A construct #2; VH first
B4: 2A-3 #9 (bispecific antibody, human IgG1, kappa)
heavy: not shown
chain: DIVMTQAPLSLPVSLGDQASISCRSSQSIVHSNGNTYLEWYLQKPGQSPKLLIYKVSNRFSGVPDRFSGSGSGTDFTLKISRVEAEDLGIYYCFQGSHVPPTFGGGTKLEIKRTVAAPSVFIFPPSDEQLKSGTASVVCLLNNFYPREAKVQWKVDNALQSGNSQESVTEQDSKDSTYSLSSTLTLSKADYEKHKVYACEVTHQGLSSPVTKSFNRGECGGGGSGGGGSDIQMTQSPSSVSASVGDRVTITCKSSQSLLYSTNQKNYLAWYQQKPGKAPKLLIYWASTRESGVPSRFSGSGSGTDFTLTISSLQPEDFATYYCQQYFIYPRTFGQGTKVEIKGGGGSGGGGSGGGGSEVQLVQSGAEVKKPGSSVKVSCKASGYIFTDYNMDWVRQAPGQGLEWIGDINPDADTTSYNEKFKGRATLTVDKSTSTAYMELSSLRSEDTAVYYCARGGYSGSSYYHPMDYWGQGTLVTVSSGGGGSGGGGSGGGGSGGGGSDIVMTQAPLSLPVSLGDQASISCRSSQSIVHSNGNTYLEWYLQKPGQSPKLLIYKVSNRFSGVPDRFSGSGSGTDFTLKISRVEAEDLGIYYCFQGSHVPPTFGGGTKLEIKRTVAAPSVFIFPPSDEQLKSGTASVVCLLNNFYPREAKVQWKVDNALQSGNSQESVTEQDSKDSTYSLSSTLTLSKADYEKHKVYACEVTHQGLSSPVTKSFNRGEC
notes: also called Gen 2A construct #9; VL first
B5: 2A-3 #10 (bispecific antibody, human IgG1, kappa)
heavy: not shown
chain: DIVMTQAPLSLPVSLGDQASISCRSSQSIVHSNGNTYLEWYLQKPGQSPKLLIYKVSNRFSGVPDRFSGSGSGTDFTLKISRVEAEDLGIYYCFQGSHVPPTFGGGTKLEIKRTVAAPSVFIFPPSDEQLKSGTASVVCLLNNFYPREAKVQWKVDNALQSGNSQESVTEQDSKDSTYSLSSTLTLSKADYEKHKVYACEVTHQGLSSPVTKSFNRGECGGGGSGGGGSGGGGSDIQMTQSPSSVSASVGDRVTITCKSSQSLLYSTNQKNYLAWYQQKPGKAPKLLIYWASTRESGVPSRFSGSGSGTDFTLTISSLQPEDFATYYCQQYFIYPRTFGQGTKVEIKGGGGSGGGGSGGGGSEVQLVQSGAEVKKPGSSVKVSCKASGYIFTDYNMDWVRQAPGQGLEWIGDINPDADTTSYNEKFKGRATLTVDKSTSTAYMELSSLRSEDTAVYYCARGGYSGSSYYHPMDYWGQGTLVTVSSGGGGSGGGGSGGGGSGGGGSDIVMTQAPLSLPVSLGDQASISCRSSQSIVHSNGNTYLEWYLQKPGQSPKLLIYKVSNRFSGVPDRFSGSGSGTDFTLKISRVEAEDLGIYYCFQGSHVPPTFGGGTKLEIKRTVAAPSVFIFPPSDEQLKSGTASVVCLLNNFYPREAKVQWKVDNALQSGNSQESVTEQDSKDSTYSLSSTLTLSKADYEKHKVYACEVTHQGLSSPVTKSFNRGEC
notes: also called Gen 2A construct #10; VL first
B6: 2A-3 #7 (bispecific antibody, human IgG1, kappa)
heavy: not shown
chain: DIVMTQAPLSLPVSLGDQASISCRSSQSIVHSNGNTYLEWYLQKPGQSPKLLIYKVSNRFSGVPDRFSGSGSGTDFTLKISRVEAEDLGIYYCFQGSHVPPTFGGGTKLEIKRTVAAPSVFIFPPSDEQLKSGTASVVCLLNNFYPREAKVQWKVDNALQSGNSQESVTEQDSKDSTYSLSSTLTLSKADYEKHKVYACEVTHQGLSSPVTKSFNRGECGGGGSGGGGSGGGGSGGGGSGGGGSEVQLVQSGAEVKKPGSSVKVSCKASGYIFTDYNMDWVRQAPGQGLEWIGDINPDADTTSYNEKFKGRATLTVDKSTSTAYMELSSLRSEDTAVYYCARGGYSGSSYYHPMDYWGQGTLVTVSSGGGGSGGGGSGGGGSDIQMTQSPSSVSASVGDRVTITCKSSQSLLYSTNQKNYLAWYQQKPGKAPKLLIYWASTRESGVPSRFSGSGSGTDFTLTISSLQPEDFATYYCQQYFIYPRTFGQGTKVEIKGGGGSGGGGSGGGGSGGGGSGGGGSDIVMTQAPLSLPVSLGDQASISCRSSQSIVHSNGNTYLEWYLQKPGQSPKLLIYKVSNRFSGVPDRFSGSGSGTDFTLKISRVEAEDLGIYYCFQGSHVPPTFGGGTKLEIKRTVAAPSVFIFPPSDEQLKSGTASVVCLLNNFYPREAKVQWKVDNALQSGNSQESVTEQDSKDSTYSLSSTLTLSKADYEKHKVYACEVTHQGLSSPVTKSFNRGEC
notes: also called Gen 2A construct #7; VH first
B7: 2A-3 #11 (bispecific antibody, human IgG1, kappa)
heavy: not shown
chain: DIVMTQAPLSLPVSLGDQASISCRSSQSIVHSNGNTYLEWYLQKPGQSPKLLIYKVSNRFSGVPDRFSGSGSGTDFTLKISRVEAEDLGIYYCFQGSHVPPTFGGGTKLEIKRTVAAPSVFIFPPSDEQLKSGTASVVCLLNNFYPREAKVQWKVDNALQSGNSQESVTEQDSKDSTYSLSSTLTLSKADYEKHKVYACEVTHQGLSSPVTKSFNRGECGGGGSDIQMTQSPSSVSASVGDRVTITCKSSQSLLYSTNQKNYLAWYQQKPGKAPKLLIYWASTRESGVPSRFSGSGSGTDFTLTISSLQPEDFATYYCQQYFIYPRTFGQGTKVEIKGGGGSGGGGSGGGGSEVQLVQSGAEVKKPGSSVKVSCKASGYIFTDYNMDWVRQAPGQGLEWIGDINPDADTTSYNEKFKGRATLTVDKSTSTAYMELSSLRSEDTAVYYCARGGYSGSSYYHPMDYWGQGTLVTVSSGGGGSGGGGSGGGGSGGGGSGGGGSDIVMTQAPLSLPVSLGDQASISCRSSQSIVHSNGNTYLEWYLQKPGQSPKLLIYKVSNRFSGVPDRFSGSGSGTDFTLKISRVEAEDLGIYYCFQGSHVPPTFGGGTKLEIKRTVAAPSVFIFPPSDEQLKSGTASVVCLLNNFYPREAKVQWKVDNALQSGNSQESVTEQDSKDSTYSLSSTLTLSKADYEKHKVYACEVTHQGLSSPVTKSFNRGEC
notes: also called Gen 2A construct #11; VL first

Biological target: T1, human transferrin receptor 1 (hTfR1) on cell surfaces (human, UniProt P02786 1-760)
T1 construct: Endogenous receptor on hCMEC/D3, THP-1, K562 and Ramos cells; also called CD71; endogenous hTfR1
T1 sequence (P02786 whole entry): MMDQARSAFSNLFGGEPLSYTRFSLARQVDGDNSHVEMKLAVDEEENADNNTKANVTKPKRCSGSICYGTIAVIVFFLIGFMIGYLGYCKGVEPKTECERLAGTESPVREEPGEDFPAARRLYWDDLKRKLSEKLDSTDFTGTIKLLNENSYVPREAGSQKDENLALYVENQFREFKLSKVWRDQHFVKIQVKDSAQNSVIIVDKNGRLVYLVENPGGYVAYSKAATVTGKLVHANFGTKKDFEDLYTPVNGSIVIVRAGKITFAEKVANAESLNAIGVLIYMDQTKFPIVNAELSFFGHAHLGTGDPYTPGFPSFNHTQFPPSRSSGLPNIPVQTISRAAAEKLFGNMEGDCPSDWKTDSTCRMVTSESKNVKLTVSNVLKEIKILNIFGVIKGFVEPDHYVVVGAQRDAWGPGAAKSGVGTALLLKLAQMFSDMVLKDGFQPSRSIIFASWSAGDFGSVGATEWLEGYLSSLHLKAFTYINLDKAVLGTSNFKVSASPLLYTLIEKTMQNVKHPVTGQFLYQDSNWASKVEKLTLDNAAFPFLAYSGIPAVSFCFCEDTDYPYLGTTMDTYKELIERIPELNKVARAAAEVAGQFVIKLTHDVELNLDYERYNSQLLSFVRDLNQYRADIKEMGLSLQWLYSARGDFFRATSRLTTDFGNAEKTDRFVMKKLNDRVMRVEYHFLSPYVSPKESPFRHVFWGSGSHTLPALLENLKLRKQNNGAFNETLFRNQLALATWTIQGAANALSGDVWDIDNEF
Test: flow cytometry on Ramos cells (hTfR1 on the surface), Fc receptors blocked, overnight at 4 °C, detection with anti-human IgG-Alexa Fluor 488
Protocol: Binding to hTfR1 on cells was measured on the immortalized human B lymphocyte cell line Ramos (Sigma, cat: 85030802). This cell line is known for expressing high levels of hTfR1 on the cell surface. Fcγ receptors were blocked using Fc receptor blocker (Innovex biosciences, #NB309-4X-40) for 30 min at 4° C., after which the cells were washed in PBS. The cells were seeded in a 96 well V bottom plate (#249570, Thermo Scientific Nunc), and serially diluted Gen 2A constructs were added and the plate was incubated at 4° C. overnight. The cells were washed with PBS with 1% BSA and then fixed with freshly prepared 4% formaldehyde (Thermo Scientific Pierce, #28906) diluted in PBS for 15 min at room temperature. The cells were washed with PBS containing 1% BSA, and then stained. […] Staining was carried out for 30 min at 4° C. After incubation with the detection reagent, cells were washed with PBS containing 1% BSA. The cells were finally resuspended in 200 μl PBS with 1% BSA and acquired using a BD FACSLyric flow cytometer system (BD Biosciences). Samples were analyzed using flowJo software (BD Biosciences).

| Binder | binding result |
| --- | --- |
| B1 | binds |
| B2 | binds |
| B3 | binds |
| B4 | binds |
| B5 | binds |
| B6 | binds |
| B7 | binds |
